From US5612040

Molecular target: baby hamster kidney (BHK) cells
Test: cell binding to BHK cells at a constant virus/cell ratio (1000:1)

foot-and-mouth disease virus (FMDV) type A12, wild-type virus (VRGDF at amino acids 143-147 of VP1)
Cell Binding, %: 65%
